# Measured values: publication PMC9482650, “Quantitative fragmentomics allow affinity mapping of interactomes” (Nature Communications, 2022)
# T1: SIPA1L2, Q9P2F8
# T1 sequence (Q9P2F8 945-1036, limits assumed, looked up): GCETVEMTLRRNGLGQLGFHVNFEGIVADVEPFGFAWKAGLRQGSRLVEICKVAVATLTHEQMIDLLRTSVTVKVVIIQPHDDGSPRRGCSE
# T2: MPDZ_5, O75970
# T2 sequence (O75970 695-796, limits assumed, looked up): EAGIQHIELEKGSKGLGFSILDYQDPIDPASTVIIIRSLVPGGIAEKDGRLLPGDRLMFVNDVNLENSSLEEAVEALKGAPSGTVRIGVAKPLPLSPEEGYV
# T3: PCLO, Q9Y6V0
# T3 sequence (Q9Y6V0 4491-4600, limits assumed, looked up): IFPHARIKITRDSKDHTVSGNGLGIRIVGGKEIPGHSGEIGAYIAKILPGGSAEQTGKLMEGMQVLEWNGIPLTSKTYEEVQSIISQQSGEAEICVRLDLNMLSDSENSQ
# T4: DFNB31_3, Q9P202
# T4 sequence (Q9P202 811-907, limits assumed, looked up): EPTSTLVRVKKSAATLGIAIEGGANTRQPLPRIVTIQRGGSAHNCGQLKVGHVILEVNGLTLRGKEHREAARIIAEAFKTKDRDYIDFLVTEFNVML
# T5: PDZD2_2, O15018
# T5 sequence (O15018 329-429, limits assumed, looked up): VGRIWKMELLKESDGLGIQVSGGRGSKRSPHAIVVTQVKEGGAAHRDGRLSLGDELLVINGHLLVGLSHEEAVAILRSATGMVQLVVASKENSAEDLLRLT
# T6: NHERF3_4, Q5T2W1
# T6 sequence (Q5T2W1 373-468, limits assumed, looked up): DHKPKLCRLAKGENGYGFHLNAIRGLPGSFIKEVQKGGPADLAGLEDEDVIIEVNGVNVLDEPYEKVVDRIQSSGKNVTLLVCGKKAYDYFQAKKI
# T7: DLG3_1, Q92796
# T7 sequence (Q92796 125-227, limits assumed, looked up): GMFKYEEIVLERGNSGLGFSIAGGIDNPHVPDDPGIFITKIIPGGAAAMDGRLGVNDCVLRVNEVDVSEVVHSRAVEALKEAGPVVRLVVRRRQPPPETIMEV
# T8: MPP6, Q9NZW5
# T8 sequence (Q9NZW5 125-219, limits assumed, looked up): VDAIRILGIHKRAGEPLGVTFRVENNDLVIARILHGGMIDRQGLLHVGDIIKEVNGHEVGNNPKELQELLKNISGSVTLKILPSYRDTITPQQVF
# T9: NHERF3_1, Q5T2W1
# T9 sequence (Q5T2W1 4-100, limits assumed, looked up): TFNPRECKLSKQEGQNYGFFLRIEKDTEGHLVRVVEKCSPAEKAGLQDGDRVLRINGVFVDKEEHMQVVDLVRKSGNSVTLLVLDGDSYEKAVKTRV
# T10: LIN7A, O14910
# T10 sequence (O14910 103-200, limits assumed, looked up): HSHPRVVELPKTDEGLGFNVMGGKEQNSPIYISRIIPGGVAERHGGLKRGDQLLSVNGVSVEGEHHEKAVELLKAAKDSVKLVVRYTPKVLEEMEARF
# T11: SNTA1, Q13424
# T11 sequence (Q13424 82-180, limits assumed, looked up): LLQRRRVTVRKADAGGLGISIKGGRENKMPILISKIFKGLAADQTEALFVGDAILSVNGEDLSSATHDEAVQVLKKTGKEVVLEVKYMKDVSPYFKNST
# Target: GRIP2_6, Q9C0E4
# Sequence (Q9C0E4 648-740): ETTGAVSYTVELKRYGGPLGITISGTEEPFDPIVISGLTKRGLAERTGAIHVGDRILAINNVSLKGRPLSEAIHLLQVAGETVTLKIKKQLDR
# Experiment: holdup assay
# Set-up: key: below the threshold = too weak to quantify, mostly under pKd 3.1 to 4
# Details: plain residues with an end cap or a label only (N-terminal biotin on a linker: ado-ado)
row,Binder,pKd
1,"NNMAFETTHF [SLC5A12, Q1EHB4]",below the threshold
2,"KKTPVSRSHL [SLC22A3, O75751]",below the threshold

# Target: NHERF2_2, Q15599
# Sequence (Q15599 142-238): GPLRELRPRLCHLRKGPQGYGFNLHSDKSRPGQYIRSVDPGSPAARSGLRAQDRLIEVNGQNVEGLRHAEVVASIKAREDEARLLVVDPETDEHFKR
# Experiment: holdup assay
# Set-up: key: below the threshold = too weak to quantify, mostly under pKd 3.1 to 4
# Details: plain residues with an end cap or a label only (N-terminal biotin on a linker: ado-ado)
row,Binder,pKd
1,"NNMAFETTHF [SLC5A12, Q1EHB4]",4.7
2,"KKTPVSRSHL [SLC22A3, O75751]",3.92

# Target: GRIP2_5, Q9C0E4
# Sequence (Q9C0E4 544-642): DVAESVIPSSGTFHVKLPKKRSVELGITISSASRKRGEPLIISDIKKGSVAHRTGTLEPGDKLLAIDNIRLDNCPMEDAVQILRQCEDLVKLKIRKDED
# Experiment: holdup assay
# Set-up: key: below the threshold = too weak to quantify, mostly under pKd 3.1 to 4
# Details: plain residues with an end cap or a label only (N-terminal biotin on a linker: ado-ado)
row,Binder,pKd
1,"NNMAFETTHF [SLC5A12, Q1EHB4]",below the threshold
2,"KKTPVSRSHL [SLC22A3, O75751]",below the threshold

# Target: T1, SIPA1L2, Q9P2F8
# Experiment: holdup assay
# Set-up: key: below the threshold = too weak to quantify, mostly under pKd 3.1 to 4
# Details: plain residues with an end cap or a label only (N-terminal biotin on a linker: ado-ado)
row,Binder,pKd
1,"NNMAFETTHF [SLC5A12, Q1EHB4]",below the threshold
2,"KKTPVSRSHL [SLC22A3, O75751]",3.53

# Target: T2, MPDZ_5, O75970
# Experiment: holdup assay
# Set-up: key: below the threshold = too weak to quantify, mostly under pKd 3.1 to 4
# Details: plain residues with an end cap or a label only (N-terminal biotin on a linker: ado-ado)
row,Binder,pKd
1,"NNMAFETTHF [SLC5A12, Q1EHB4]",below the threshold
2,"KKTPVSRSHL [SLC22A3, O75751]",below the threshold

# Target: T3, PCLO, Q9Y6V0
# Experiment: holdup assay
# Set-up: key: below the threshold = too weak to quantify, mostly under pKd 3.1 to 4
# Details: plain residues with an end cap or a label only (N-terminal biotin on a linker: ado-ado)
row,Binder,pKd
1,"NNMAFETTHF [SLC5A12, Q1EHB4]",below the threshold
2,"KKTPVSRSHL [SLC22A3, O75751]",below the threshold

# Target: T4, DFNB31_3, Q9P202
# Experiment: holdup assay
# Set-up: key: below the threshold = too weak to quantify, mostly under pKd 3.1 to 4
# Details: plain residues with an end cap or a label only (N-terminal biotin on a linker: ado-ado)
row,Binder,pKd
1,"NNMAFETTHF [SLC5A12, Q1EHB4]",3.78
2,"KKTPVSRSHL [SLC22A3, O75751]",below the threshold

# Target: T5, PDZD2_2, O15018
# Experiment: holdup assay
# Set-up: key: below the threshold = too weak to quantify, mostly under pKd 3.1 to 4
# Details: plain residues with an end cap or a label only (N-terminal biotin on a linker: ado-ado)
row,Binder,pKd
1,"NNMAFETTHF [SLC5A12, Q1EHB4]",below the threshold
2,"KKTPVSRSHL [SLC22A3, O75751]",below the threshold

# Target: T6, NHERF3_4, Q5T2W1
# Experiment: holdup assay
# Set-up: key: below the threshold = too weak to quantify, mostly under pKd 3.1 to 4
# Details: plain residues with an end cap or a label only (N-terminal biotin on a linker: ado-ado)
row,Binder,pKd
1,"NNMAFETTHF [SLC5A12, Q1EHB4]",4.57
2,"KKTPVSRSHL [SLC22A3, O75751]",below the threshold

# Target: IL16_3, Q14005
# Sequence (Q14005 1107-1207): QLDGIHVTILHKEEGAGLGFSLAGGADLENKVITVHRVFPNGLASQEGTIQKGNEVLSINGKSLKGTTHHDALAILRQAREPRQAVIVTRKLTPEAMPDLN
# Experiment: holdup assay
# Set-up: key: below the threshold = too weak to quantify, mostly under pKd 3.1 to 4
# Details: plain residues with an end cap or a label only (N-terminal biotin on a linker: ado-ado)
row,Binder,pKd
1,"NNMAFETTHF [SLC5A12, Q1EHB4]",below the threshold
2,"KKTPVSRSHL [SLC22A3, O75751]",below the threshold

# Target: T7, DLG3_1, Q92796
# Experiment: holdup assay
# Set-up: key: below the threshold = too weak to quantify, mostly under pKd 3.1 to 4
# Details: plain residues with an end cap or a label only (N-terminal biotin on a linker: ado-ado)
row,Binder,pKd
1,"NNMAFETTHF [SLC5A12, Q1EHB4]",below the threshold
2,"KKTPVSRSHL [SLC22A3, O75751]",below the threshold

# Target: HTRA2, O43464
# Sequence (O43464 355-458): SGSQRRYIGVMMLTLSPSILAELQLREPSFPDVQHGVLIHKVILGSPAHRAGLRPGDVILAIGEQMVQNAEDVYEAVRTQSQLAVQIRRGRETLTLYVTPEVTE
# Experiment: holdup assay
# Set-up: key: below the threshold = too weak to quantify, mostly under pKd 3.1 to 4
# Details: plain residues with an end cap or a label only (N-terminal biotin on a linker: ado-ado)
row,Binder,pKd
1,"NNMAFETTHF [SLC5A12, Q1EHB4]",below the threshold
2,"KKTPVSRSHL [SLC22A3, O75751]",below the threshold

# Target: T8, MPP6, Q9NZW5
# Experiment: holdup assay
# Set-up: key: below the threshold = too weak to quantify, mostly under pKd 3.1 to 4
# Details: plain residues with an end cap or a label only (N-terminal biotin on a linker: ado-ado)
row,Binder,pKd
1,"NNMAFETTHF [SLC5A12, Q1EHB4]",below the threshold
2,"KKTPVSRSHL [SLC22A3, O75751]",below the threshold

# Target: DLG1_3, Q12959
# Experiment: holdup assay
# Set-up: key: below the threshold = too weak to quantify, mostly under pKd 3.1 to 4
# Details: plain residues with an end cap or a label only (N-terminal biotin on a linker: ado-ado)
row,Binder,pKd
1,"NNMAFETTHF [SLC5A12, Q1EHB4]",below the threshold
2,"KKTPVSRSHL [SLC22A3, O75751]",below the threshold

# Target: MAST1, Q9Y2H9
# Sequence (Q9Y2H9 962-1065): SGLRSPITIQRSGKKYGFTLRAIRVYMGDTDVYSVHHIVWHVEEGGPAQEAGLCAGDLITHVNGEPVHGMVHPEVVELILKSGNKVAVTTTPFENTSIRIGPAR
# Experiment: holdup assay
# Set-up: key: below the threshold = too weak to quantify, mostly under pKd 3.1 to 4
# Details: plain residues with an end cap or a label only (N-terminal biotin on a linker: ado-ado)
row,Binder,pKd
1,"NNMAFETTHF [SLC5A12, Q1EHB4]",4.77
2,"KKTPVSRSHL [SLC22A3, O75751]",below the threshold

# Target: GRASP, Q7Z6J2
# Sequence (Q7Z6J2 96-193): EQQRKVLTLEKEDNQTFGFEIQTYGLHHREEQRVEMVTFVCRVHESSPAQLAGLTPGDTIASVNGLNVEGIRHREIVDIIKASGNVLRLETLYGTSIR
# Experiment: holdup assay
# Set-up: key: below the threshold = too weak to quantify, mostly under pKd 3.1 to 4
# Details: plain residues with an end cap or a label only (N-terminal biotin on a linker: ado-ado)
row,Binder,pKd
1,"NNMAFETTHF [SLC5A12, Q1EHB4]",4.8
2,"KKTPVSRSHL [SLC22A3, O75751]",4.38

# Target: CASK, O14936
# Sequence (O14936 487-570): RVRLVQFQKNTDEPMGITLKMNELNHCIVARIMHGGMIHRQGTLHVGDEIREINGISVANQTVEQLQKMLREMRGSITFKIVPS
# Experiment: holdup assay
# Set-up: key: below the threshold = too weak to quantify, mostly under pKd 3.1 to 4
# Details: plain residues with an end cap or a label only (N-terminal biotin on a linker: ado-ado)
row,Binder,pKd
1,"NNMAFETTHF [SLC5A12, Q1EHB4]",below the threshold
2,"KKTPVSRSHL [SLC22A3, O75751]",below the threshold

# Target: T9, NHERF3_1, Q5T2W1
# Experiment: holdup assay
# Set-up: key: below the threshold = too weak to quantify, mostly under pKd 3.1 to 4
# Details: plain residues with an end cap or a label only (N-terminal biotin on a linker: ado-ado)
row,Binder,pKd
1,"NNMAFETTHF [SLC5A12, Q1EHB4]",5.03
2,"KKTPVSRSHL [SLC22A3, O75751]",4.39

# Target: FRMPD3, Q5JV73
# Sequence (Q5JV73 12-100): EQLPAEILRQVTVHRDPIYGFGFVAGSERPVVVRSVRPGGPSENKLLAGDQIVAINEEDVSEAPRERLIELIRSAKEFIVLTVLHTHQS
# Experiment: holdup assay
# Set-up: key: below the threshold = too weak to quantify, mostly under pKd 3.1 to 4
# Details: plain residues with an end cap or a label only (N-terminal biotin on a linker: ado-ado)
row,Binder,pKd
1,"NNMAFETTHF [SLC5A12, Q1EHB4]",3.5
2,"KKTPVSRSHL [SLC22A3, O75751]",below the threshold

# Target: T10, LIN7A, O14910
# Experiment: holdup assay
# Set-up: key: below the threshold = too weak to quantify, mostly under pKd 3.1 to 4
# Details: plain residues with an end cap or a label only (N-terminal biotin on a linker: ado-ado)
row,Binder,pKd
1,"NNMAFETTHF [SLC5A12, Q1EHB4]",3.74
2,"KKTPVSRSHL [SLC22A3, O75751]",below the threshold

# Target: T11, SNTA1, Q13424
# Experiment: holdup assay
# Set-up: key: below the threshold = too weak to quantify, mostly under pKd 3.1 to 4
# Details: plain residues with an end cap or a label only (N-terminal biotin on a linker: ado-ado)
row,Binder,pKd
1,"NNMAFETTHF [SLC5A12, Q1EHB4]",below the threshold
2,"KKTPVSRSHL [SLC22A3, O75751]",3.53

# Target: GOPC, Q9HD26
# Experiment: holdup assay
# Set-up: key: below the threshold = too weak to quantify, mostly under pKd 3.1 to 4
# Details: plain residues with an end cap or a label only (N-terminal biotin on a linker: ado-ado)
row,Binder,pKd
1,"NNMAFETTHF [SLC5A12, Q1EHB4]",below the threshold
2,"KKTPVSRSHL [SLC22A3, O75751]",3.81

# Target: DLG1_2, Q12959
# Experiment: holdup assay
# Set-up: key: below the threshold = too weak to quantify, mostly under pKd 3.1 to 4
# Details: plain residues with an end cap or a label only (N-terminal biotin on a linker: ado-ado)
row,Binder,pKd
1,"NNMAFETTHF [SLC5A12, Q1EHB4]",below the threshold
2,"KKTPVSRSHL [SLC22A3, O75751]",3.52

# Target: FRMPD2_3, Q68DX3
# Sequence (Q68DX3 1073-1166): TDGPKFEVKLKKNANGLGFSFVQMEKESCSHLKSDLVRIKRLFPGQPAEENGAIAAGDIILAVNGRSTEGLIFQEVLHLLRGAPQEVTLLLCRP
# Experiment: holdup assay
# Set-up: key: below the threshold = too weak to quantify, mostly under pKd 3.1 to 4
# Details: plain residues with an end cap or a label only (N-terminal biotin on a linker: ado-ado)
row,Binder,pKd
1,"NNMAFETTHF [SLC5A12, Q1EHB4]",below the threshold
2,"KKTPVSRSHL [SLC22A3, O75751]",below the threshold

# Target: DLG1_1, Q12959
# Experiment: holdup assay
# Set-up: key: below the threshold = too weak to quantify, mostly under pKd 3.1 to 4
# Details: plain residues with an end cap or a label only (N-terminal biotin on a linker: ado-ado)
row,Binder,pKd
1,"NNMAFETTHF [SLC5A12, Q1EHB4]",below the threshold
2,"KKTPVSRSHL [SLC22A3, O75751]",below the threshold

# Target: GRID2IP_2, A4D2P6
# Sequence (A4D2P6 272-370): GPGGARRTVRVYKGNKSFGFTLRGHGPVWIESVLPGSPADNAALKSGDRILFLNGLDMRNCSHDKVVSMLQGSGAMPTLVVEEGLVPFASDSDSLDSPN
# Experiment: holdup assay
# Set-up: key: below the threshold = too weak to quantify, mostly under pKd 3.1 to 4
# Details: plain residues with an end cap or a label only (N-terminal biotin on a linker: ado-ado)
row,Binder,pKd
1,"NNMAFETTHF [SLC5A12, Q1EHB4]",3.49
2,"KKTPVSRSHL [SLC22A3, O75751]",5.18

# Target: MAGI2_2, Q86UL8
# Sequence (Q86UL8 410-522): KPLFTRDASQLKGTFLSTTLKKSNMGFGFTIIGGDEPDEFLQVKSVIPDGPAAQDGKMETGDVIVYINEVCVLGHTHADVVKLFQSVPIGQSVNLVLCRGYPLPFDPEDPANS
# Experiment: holdup assay
# Set-up: key: below the threshold = too weak to quantify, mostly under pKd 3.1 to 4
# Details: plain residues with an end cap or a label only (N-terminal biotin on a linker: ado-ado)
row,Binder,pKd
1,"NNMAFETTHF [SLC5A12, Q1EHB4]",below the threshold
2,"KKTPVSRSHL [SLC22A3, O75751]",below the threshold
